In patent publication US20100028995A1, “Tetranectin Trimerizing Polypeptides” (Anaphore, Inc., priority 2004, published 2010):

Assay: Differential scanning calorimetry (VP-DSC) of tetranectin trimerisation domain and deletion peptides
Format: physicochemical
Settings: for TM if N is free: in °C
Protocol: A characterization of the thermal stability of the trimerisation domain of tetranectin was obtained using DSC, both of the full length trimerisation domain and of deletion mutants.
The DSC scans were conducted on a VP-DSC from MicroCal LLC (Northampton, Mass.). For most of the scans a PBS buffer containing 110 mM NaCl and 40 mM NaPO4 was used. The pH was 7.4. The scans were made from 10 to 110° C. under approximately 25 psi at a scan rate of 1° C./min and a pre-scan period of 20 minutes. At least two scans with buffer in both chambers were conducted before removal of buffer from both chambers and the filling with new buffer and protein/peptide solution to the reference and sample chamber respectively.
Peptides were synthesized by an outside vendor and were based on the tetranectin sequence, however, minor modifications were applied. In particular, the residue corresponding to Cys 50 was changed to a Serine. Also, residue number 28 is in native TN polymorphic, being either a Ser or an Ala. In the following experiments, Ala was selected. In addition, the N and C-terminal of the peptides were modified to remove charge and mimic natural peptides, increase stability toward digestion by aminopeptidases and block against synthetase activity. In the N-terminal deletion class peptides the N-terminal is acetylated and the C-terminal is prolonged with a β-Ala and a Cys. For the C-terminal deletion class peptides the modification are amidation of the C-terminal and all the sequences start with Cys-βAla.
Since these peptides were lyophilized from a TFA solution the pH of the redissolved peptides had to be adjusted. This was done using our micro-pH meter from Unisense. The pH was adjusted to the same mV value as found for the buffer by adding small portions of 0.2 M NaOH to the solution immediately followed by mixing. In order to prevent disulphide-bridge dimerisation and possible stabilization of the multimeric structures all scanning of peptides were conducted in 5 mM β-mercaptoethanol. Prior to scanning and addition of β-mercaptoethanol the sample and buffer were extensively degassed under vacuum while stirring.
Trip-A (SEQ ID NO:42) was scanned at concentrations ranging from 2 mM to 0.125 mM, by lowering the concentration by a factor 2. This corresponds to protein concentrations from 12.7 mg-ml to 0.80 mg/mL. […] The difference between the two-state model and the non-2-state model can be stated as that the non-2-state model contains a contribution to the unfolding energy from co-operative stabilization of subunits. This leads to a sharpening of the peak. The parameter introduced relative to the 2-state model is called the ΔHv, or the van't Hoff enthalpy. The ratio between ΔHv and ΔH can be taken as a measurement of the number of subunits in one unfolding unit. The result is shown on FIG. 13 and Table 6. The data is from one representative scan and fitted to the non-2-state model.
The “dissociation with dCp” model describes a system where unfolding and dissociation of a multisubunit protein is simultaneous. The data is from one representative scan and fitted to the “dissociation with dCp” model. The ΔHm and dCp value is per trimer.

[1] = Trip-A 0.125 mM, dissociation with dCp model
[2] = Trip-A 0.125 mM, dissociation with dCp model, per trimer
[3] = Trip-A 0.125 mM, non-2-state model, PBS pH 7.4
[4] = Trip-A 0.25 mM, dissociation with dCp model
[5] = Trip-A 0.25 mM, dissociation with dCp model, per trimer
[6] = Trip-A 0.25 mM, non-2-state model, PBS pH 7.4
[7] = Trip-A 0.5 mM, Down, first scan
[8] = Trip-A 0.5 mM, Down, first scan, per trimer
[9] = Trip-A 0.5 mM, Down, sec. scan, per trimer
[10] = Trip-A 0.5 mM, Up, first scan, per trimer
[11] = Trip-A 0.5 mM, Up, second scan, per trimer
[12] = Trip-A 0.5 mM, dissociation with dCp model
[13] = Trip-A 0.5 mM, dissociation with dCp model, per trimer
[14] = Trip-A 0.5 mM, non-2-state model, PBS pH 7.4
[15] = Trip-A 1.0 mM, dissociation with dCp model
[16] = Trip-A 1.0 mM, dissociation with dCp model, per trimer
[17] = Trip-A 1.0 mM, non-2-state model, PBS pH 7.4
[18] = Trip-A 2.0 mM, dissociation with dCp model
[19] = Trip-A 2.0 mM, dissociation with dCp model, per trimer
[20] = Trip-A 2.0 mM, non-2-state model, PBS pH 7.4

Trip-A: full length trimerisation domain of tetranectin (SEQ ID NO:42) (SPGTEPPTQKPKKIVNAKKDVVNTKMFEELKARLDTLSQEVALLKEQQALQTVSLKGS)
Rev. (%) (Table 10, N-terminal deletion peptides, Conc per construct): 97.6%
ΔHm (kJ/mol(trimer)) (Table 10, N-terminal deletion peptides, dissociation with dCp model, Conc per construct): 319.2 ± 0.4 kJ/mol(trimer)
TM (° C.) (Table 10, N-terminal deletion peptides, dissociation with dCp model, PBS pH 7.4, Conc per construct 0.32-0.63 (column Conc)): 84.7 ± 0.1 °C
dCp (kJ/molK) (Table 10, N-terminal deletion peptides, per trimer, Conc per construct): 0.7 ± 0.1 kJ/molK
Rev. (%) (Table 11, C-terminal deletion peptides, Conc per construct): 97.6%
ΔHm (kJ/mol(trimer)) (Table 11, C-terminal deletion peptides, dissociation with dCp model, Conc per construct): 319.2 ± 0.4 kJ/mol(trimer)
TM (° C.) (Table 11, C-terminal deletion peptides, dissociation with dCp model, PBS pH 7.4, Conc per construct 0.4-0.63 (column Conc)): 84.7 ± 0.1 °C
dCp (kJ/molK) (Table 11, C-terminal deletion peptides, per trimer, Conc per construct): 0.7 ± 0.1 kJ/molK
Rev. (%) [1]: 98.9%
TM (° C.) (N = 3) [1]: 82.2 ± 0.3 °C
N (free) [1]: 1.88
TM if N is free [1]: 78.9 ± 0.3
dCp (kJ/molK) [2]: 2.4 ± 0.2 kJ/molK
ΔHm [2]: 66.2 ± 0.454 kcal/mol
Reversibility (%) [3]: 94.2%
TM (° C.) [3]: 73.1 ± 0.03 °C
ΔH [3]: 15.2 ± 0.048 kcal/mol
ΔHv [3]: 42.52 ± 0.14 kcal/mol
ΔHv/ΔH [3]: 2.8
Rev. (%) [4]: 98.2%
TM (° C.) (N = 3) [4]: 81.4 ± 0.1 °C
N (free) [4]: 2.48
TM if N is free [4]: 81.2 ± 0.1
dCp (kJ/molK) [5]: 3.3 ± 0.1 kJ/molK
ΔHm [5]: 68 ± 0.17 kcal/mol
Reversibility (%) [6]: 95.6%
TM (° C.) [6]: 75.9 ± 0.1 °C
ΔH [6]: 12.7 ± 0.096 kcal/mol
ΔHv [6]: 46.03 ± 0.406 kcal/mol
ΔHv/ΔH [6]: 3.6
Rev. (%) [7]: 68.9%
TM (° C.) (Trip-A 0.5 mM, Down, first scan (refolding), dissociation with dCp model): 79.8 ± 0.1 °C
N (free) [7]: 0.66
TM if N is free [7]: 81.4 ± 0.4
dCp (kJ/molK) [8]: 3.5 ± 0.1 kJ/molK
ΔHm [8]: -59.51 ± 0.311 kcal/mol
Rev. (%) (Trip-A 0.5 mM, Down, sec. scan): 85.6%
TM (° C.) (Trip-A 0.5 mM, Down, sec. scan (refolding), dissociation with dCp model): 80.2 ± 0.2 °C
N (free) (Trip-A 0.5 mM, Down, sec. scan): 1.45
TM if N is free (Trip-A 0.5 mM, Down, sec. scan): 85.6 ± 0.3
dCp (kJ/molK) [9]: 6.9 ± 0.1 kJ/molK
ΔHm [9]: -40.99 ± 0.526 kcal/mol
Rev. (%) (Trip-A 0.5 mM, Up, first scan): 94.2%
N (free) (Trip-A 0.5 mM, Up, first scan): 2.13
TM if N is free (Trip-A 0.5 mM, Up, first scan): 84.0 ± 0.1
TM (° C.) (Trip-A 0.5 mM, Up, first scan, dissociation with dCp model): 82.3 ± 0.1 °C
dCp (kJ/molK) [10]: 1.7 ± 0.1 kJ/molK
ΔHm [10]: 68.91 ± 0.14 kcal/mol
Rev. (%) (Trip-A 0.5 mM, Up, second scan): 94.0%
N (free) (Trip-A 0.5 mM, Up, second scan): 3.7
TM if N is free (Trip-A 0.5 mM, Up, second scan): 80.3 ± 0.1
TM (° C.) (Trip-A 0.5 mM, Up, second scan, dissociation with dCp model): 81.7 ± 0.1 °C
dCp (kJ/molK) [11]: 2.0 ± 0.1 kJ/molK
ΔHm [11]: 64.89 ± 0.072 kcal/mol
Rev. (%) [12]: 97.6%
TM (° C.) (N = 3) [12]: 84.7 ± 0.1 °C
N (free) [12]: 3.93
TM if N is free [12]: 83.5 ± 0.1
dCp (kJ/molK) [13]: 0.67 ± 0.01 kJ/molK
ΔHm [13]: 76.29 ± 0.096 kcal/mol
Reversibility (%) [14]: 94.1%
TM (° C.) [14]: 81.4 ± 0.1 °C
ΔH [14]: 11.6 ± 0.096 kcal/mol
ΔHv [14]: 55.59 ± 0.574 kcal/mol
ΔHv/ΔH [14]: 4.8
Rev. (%) [15]: 97.6%
TM (° C.) (N = 3) [15]: 83.2 ± 0.1 °C
N (free) [15]: 2.21
TM if N is free [15]: 86.0 ± 0.1
dCp (kJ/molK) [16]: 0.58 ± 0.02 kJ/molK
ΔHm [16]: 72.49 ± 0.14 kcal/mol
Reversibility (%) [17]: 97.7%
TM (° C.) [17]: 86.5 ± 0.1 °C
ΔH [17]: 8.82 ± 0.14 kcal/mol
ΔHv [17]: 65.06 ± 1.29 kcal/mol
ΔHv/ΔH [17]: 7.4
Rev. (%) [18]: 95.6%
TM (° C.) (N = 3) [18]: 85.2 ± 0.4 °C
N (free) [18]: 5.67
TM if N is free [18]: 77.0 ± 0.5
dCp (kJ/molK) [19]: −7.1 ± 0.5 kJ/molK
ΔHm [19]: 91.9 ± 0.813 kcal/mol
Reversibility (%) [20]: 105 (!) %
TM (° C.) [20]: 90.4 ± 0.1 °C
ΔH [20]: 7.74 ± 0.072 kcal/mol
ΔHv [20]: 66.9 ± 0.837 kcal/mol
ΔHv/ΔH [20]: 8.6
Rev (%) (Trip-A, pH 3.0): 93.1%
TM (° C.) (Trip-A, pH 3.0 (100 mM NaCl 25 mM NaPO4)): 84.6 ± 0.2 °C
dCp (kJ/molK) (Trip-A, pH 3.0, per trimer): 11.9 ± 0.3 kJ/molK
ΔHm (Trip-A, pH 3.0, per trimer): 71.2 ± 0.693 kcal/mol
Rev (%) (Trip-A, pH 4.0): 88.1%
TM (° C.) (Trip-A, pH 4.0 (100 mM NaCl 25 mM NaAcetat)): 82.6 ± 0.1 °C
dCp (kJ/molK) (Trip-A, pH 4.0, per trimer): 0.12 ± 0.07 kJ/molK
ΔHm (Trip-A, pH 4.0, per trimer): 70.29 ± 0.22 kcal/mol
Rev (%) (Trip-A, pH 7.4): 97.6%
TM (° C.) (Trip-A, pH 7.4): 84.7 ± 0.1 °C
dCp (kJ/molK) (Trip-A, pH 7.4, per trimer): 0.67 ± 0.05 kJ/molK
ΔHm (Trip-A, pH 7.4, per trimer): 76.29 ± 0.096 kcal/mol
Tm values (across concentrations 0.125-2 mM, dissociation with dCp model): 81-85 °C
ΔHm (across concentrations, dissociation with dCp model): approximately 300 kJ/mole
stability to pH (scans at pH 3.0, 4.0 and 7.4): exhibits stability to pH
